According to patent US20220242958A1, “BISPECIFIC NANOBODIES” (Ablynx N.V., priority 2013, published 2022):
Changes are numbered by the printed parent chain. Names and notes keep the numbering of the source. One block for each molecule: values may come before it.

Assays:
[1] = molecular target: T1, recombinant IL-3Rα ectodomain (Homo sapiens, UniProt P26951); experiment: SPR (ProteOn) on recombinant IL-3Rα ectodomain; format: binding
T1 construct: Immobilisation of recombinant IL-3Rα ectodomain (Sino Biologicals) was done until 761 RU; purchased Sino Biologicals
T1 sequence (P26951 19-305 limits assumed): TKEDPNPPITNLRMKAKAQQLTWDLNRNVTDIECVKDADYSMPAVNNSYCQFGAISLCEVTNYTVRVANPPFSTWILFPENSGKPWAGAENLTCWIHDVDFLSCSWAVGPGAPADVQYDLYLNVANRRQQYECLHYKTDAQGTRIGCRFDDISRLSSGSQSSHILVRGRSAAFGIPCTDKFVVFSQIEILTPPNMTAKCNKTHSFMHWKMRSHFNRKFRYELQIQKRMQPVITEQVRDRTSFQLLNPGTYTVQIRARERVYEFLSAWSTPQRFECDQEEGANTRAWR
Method: The affinities of CD123 specific Nanobodies were further investigated via Surface Plasmon Resonance (SPR) at ProteOn. Immobilisation of recombinant IL-3Rα ectodomain (Sino Biologicals) was done until 761 RU. The Nanobodies were applied at a highest concentration of 1 μM, followed by a three-fold titration, covering 5 further concentrations ranging from 1 μM to 4.1 nM. These were then applied in a single injection cycle, utilising the ProteOn's specific one-shot kinetics approach for kinetic analysis. Evaluation of the association/dissociation data was performed by fitting a 1:1 interaction model (Langmuir binding model). […] For CD123 Nanobodies the obtained KD values correlated well with the apparent affinities retrieved by cell binding EC50 values (see Table 3).

HEK293T-wt cells = experiment: FACS binding to non-transfected HEK293T-wt cells (specificity); parameters: species or system human; conditions: data not shown
Method: Nanobody binding to membrane associated human IL-3Rα was analysed on HEK293T cells transfected with pcDNA3.1-IL3Rα (NM_002183.2) and non-transfected cells. Surface expression was confirmed by FACS using IL-3Rα specific antibodies (R&D MAB301 and BD Pharminogen 554528), followed by goat anti-mouse PE (Jackson Immuno Research 115-115-164). Briefly, serial dilutions of Nanobodies were allowed to associate for 30 minutes at 4° C. in FACS buffer (PBS 1×+10% FBS+0.05% azide). Following this, cells were washed by centrifugation and probed with 6.7 nM anti-FLAG for 30 minutes at 4° C., to detect bound Nanobody. Detection was done with […] for 30 minutes at 4° C. Cells were washed and incubated with TOPRO3 to stain for dead cells, which are then removed during the gating procedure. The cells were then analysed via a BD FACSArray. The results are depicted in FIG. 1.2.

[2] = molecular target: T2, human IL12Rβ2 extracellular domain Fc-fusion (Homo sapiens, UniProt Q99665); experiment: SPR (Biacore T100) on IL12Rβ2-Fc; format: binding
T2 construct: Fc-fusions of human IL12Rβ1, IL12Rβ2 and IL-23R extracellular domains; purchased R&D Systems #1959-B2
T2 sequence (Q99665 24-622 limits assumed): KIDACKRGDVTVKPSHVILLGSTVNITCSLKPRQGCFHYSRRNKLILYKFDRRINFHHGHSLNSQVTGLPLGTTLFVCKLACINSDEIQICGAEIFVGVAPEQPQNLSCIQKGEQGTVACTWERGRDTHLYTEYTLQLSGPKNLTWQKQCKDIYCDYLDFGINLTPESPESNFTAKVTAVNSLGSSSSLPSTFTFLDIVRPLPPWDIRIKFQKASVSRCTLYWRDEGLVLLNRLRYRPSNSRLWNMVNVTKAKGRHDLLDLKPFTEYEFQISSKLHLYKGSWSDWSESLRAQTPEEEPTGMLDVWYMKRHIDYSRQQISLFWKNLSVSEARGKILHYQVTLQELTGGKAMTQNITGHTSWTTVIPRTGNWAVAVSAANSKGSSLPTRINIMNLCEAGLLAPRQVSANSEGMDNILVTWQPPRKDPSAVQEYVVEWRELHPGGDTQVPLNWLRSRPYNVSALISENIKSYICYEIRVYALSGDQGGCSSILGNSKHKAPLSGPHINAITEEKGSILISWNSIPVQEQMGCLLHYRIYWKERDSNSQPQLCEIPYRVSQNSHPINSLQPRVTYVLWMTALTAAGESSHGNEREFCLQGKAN
Method: (§1) The precise binding affinities of the purified Nanobodies were determined in a multi-cycle kinetic analysis using Surface Plasmon Resonance analysis (Biacore T100) on Fc-fusions of human IL12Rβ1, IL12Rβ2 and IL-23R extracellular domains (R&D Systems, #839-B1, #1959-B2, #1400-IR). Sensorchips CM5 were immobilized with anti-hIgG antibody (GE Healthcare, BR-1008-39), after which receptors were captured at 5 μg/ml protein and contact time of 120 seconds. Running buffer used was HBS-EP+ (GE Healthcare, BR-1006-69) at 25° C., with a flow-rate of […]. For immobilization by amine coupling, EDC/NHS was used for activation and ethanolamine HCl for deactivation (Biacore, amine coupling kit). Nanobodies were evaluated at a concentration range between 1.37 nM and 3 μM. Nanobodies were allowed to associate for 2 min and to dissociate for 15 min at a flow rate of […]. In between injections, the surfaces were regenerated with a 3 min pulse of 3M MgCl2 and 2 min stabilization period. Evaluation of the association/dissociation data was performed by fitting a 1:1 interaction model (Langmuir binding model) by Biacore TWO software v2.0.3.

[3] = system: CD8+/CD4− gated and CD4+ gated T cells; experiment: Multi-colour FACS on TH1 activated T cells gated for CD8 or CD4; format: binding, human; conditions: donor D838; anti-flag-APC detection
Method: To elucidate if CD4-IL12R bispecific polypeptides preferentially bind to the CD4+/IL12R+ TH1 cell subset within the pool of T cells, Nanobody binding was analysed to a pool of activated T cells gated for either CD8 (detected by Anti-hu CD8 PE-Cy7 conjugated monoclonal antibody (BD 557746) or CD4 (detected by Anti-hu CD4 alexa Fluor 488-conjugated polyclonal antibody (R&D FAB8165G) in a multi-colour FACS experiment. Nanobody binding to the CD8+/CD4− gated cells and to CD4+ gated cells was determined using anti-flag-APC (Prozyme PJ255) detection. In this experiment TH1 activated T cells from the same donor (D838) as shown in FIG. 3.6 were used.

cytotoxic CD8+ T cells = experiment: Binding to isolated CD8+ T cells (FACS); parameters: species or system human; conditions: Nanobodies at 250 nM
Method: The pool of activated T cells comprises both CD4+ T cells and CD8+ T cells. To confirm the specificity of the anti-CD4 Nanobody and to exclude binding to CD4-negative cells, binding was assessed to cytotoxic CD8+ T cells isolated from human PBMCs using the CD8+ T Cell Isolation Kit (Miltenyi Biotech, 130-096-495), resulting in 94% purity of CD8+ cells. Binding specificity experiments were carried out using Nanobodies at 250 nM. […] Similar data were obtained for the IL12Rβ2 and IL23R Nanobodies.

[4] = molecular target: T3, human IL12Rβ1 extracellular domain Fc-fusion (Homo sapiens, UniProt P42701); experiment: SPR (Biacore T100) on IL12Rβ1-Fc; format: binding
T3 construct: Fc-fusions of human IL12Rβ1, IL12Rβ2 and IL-23R extracellular domains; purchased R&D Systems #839-B1
Method: as §1

hCEACAM5 = molecular target: T4, hCEACAM5 (Homo sapiens, UniProt P06731); experiment: SPR (Biacore T100) on hCEACAM-5; format: binding
T4 construct: purchased R&D Systems 4128-CM
T4 sequence (P06731 35-676): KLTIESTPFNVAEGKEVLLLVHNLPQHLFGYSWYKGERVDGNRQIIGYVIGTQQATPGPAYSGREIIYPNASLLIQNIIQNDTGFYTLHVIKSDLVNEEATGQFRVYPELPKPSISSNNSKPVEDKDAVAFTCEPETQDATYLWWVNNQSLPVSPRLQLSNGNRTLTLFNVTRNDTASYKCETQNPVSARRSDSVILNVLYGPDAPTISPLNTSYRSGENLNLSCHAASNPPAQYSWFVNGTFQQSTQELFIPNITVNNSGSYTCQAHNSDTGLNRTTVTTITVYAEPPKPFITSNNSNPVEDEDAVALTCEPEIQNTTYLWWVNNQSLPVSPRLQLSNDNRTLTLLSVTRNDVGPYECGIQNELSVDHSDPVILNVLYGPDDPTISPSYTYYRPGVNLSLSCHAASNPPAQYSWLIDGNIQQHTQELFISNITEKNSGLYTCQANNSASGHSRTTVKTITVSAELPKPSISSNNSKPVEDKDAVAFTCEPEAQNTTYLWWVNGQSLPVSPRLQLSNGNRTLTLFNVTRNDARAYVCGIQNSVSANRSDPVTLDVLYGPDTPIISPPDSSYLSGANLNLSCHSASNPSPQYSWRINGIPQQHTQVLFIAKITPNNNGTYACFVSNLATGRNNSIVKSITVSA
Method: In between injections, the surfaces were regenerated with a 5 sec pulse of 10 mM Glycine-HCl pH1.5 and 1 min stabilization period. Evaluation of the association/dissociation data was performed by fitting a 1:1 interaction model (Langmuir binding model) by Biacore T100 software v2.0.3. The affinity constant KD was calculated from resulting association and dissociation rate constants ka and kd and are shown in Table 4.2. The observed affinity of the NbCEA5 Nanobody (designated as CEA#1) and humanised variant (CEA#2) was in line with the reported value.

- SPR - IL-3Ra ka [1]: 84000 M⁻¹ s⁻¹
- SPR - IL-3Ra kd [1]: 0.0014 s⁻¹
B2: CD123#2: anti-IL-3Ra (CD123) Nanobody, SEQ ID NO: 14 (protein)
VHH: EVQLVESGGGSVQAGGSLRLSCTTSGRALNMYVMGWFRQAPGNEREFVAATSSSGGSTSYPDSVKGRFTISRDNAKNTVYLQMNSLKPEDTAAYRCAASPYVSTPTMNILEEYRYWGLGTQVTVSS
- binding to HEK293T-wt cells (HEK293T-wt cells): lack of binding

- Binding kinetics (SPR) ka (1/Ms), IL12Rβ2 [2]: 210000 M⁻¹ s⁻¹
- Binding kinetics (SPR) kd (1/s), IL12Rβ2 [2]: 0.00057 s⁻¹
B3: IL12Rb2#1: IL-12Rβ2 specific ligand competing Nanobody (protein)
VHH: EVQLVESGGRLVQAGDSLRLSCAASGRTFISYRMGWFRQAPGKEREFVAALRWSSSNIDYTYYADSVKGRFSISGDYAKNTVYLQMNSLKAEDTAVYYCAASTRWGVMESDTEYTSWGQGTLVTVSS
- binding to CD4+ gated and CD8+ gated T cells [3]: low fluorescence signals to both CD4+ and CD8+ cells

- Binding kinetics (SPR) ka (1/Ms), IL12Rβ1 [4]: 450000 M⁻¹ s⁻¹
- Binding kinetics (SPR) kd (1/s), IL12Rβ1 [4]: 0.0015 s⁻¹
B4: IL12Rb1#30: IL-12Rβ1 specific ligand competing Nanobody (protein)
VHH: EVQLVESGGGLVQTGGSLRLSCAASGRTPRLVAMGWFRQTPGKEREFVGEIILSKGFTYYADSVKGRFTISRVNAKNTITMYLQMNSLKSEDTAVYYCAGRQNWSGSPARTNEYEYWGQGTLVTVSS
- binding to isolated CD8+ T cells (cytotoxic CD8+ T cells): did bind
- binding to CD4+ gated and CD8+ gated T cells [3]: low fluorescence signals to both CD4+ and CD8+ cells

Second part, the molecule before the results:

B1: CD123#1: anti-IL-3Ra (CD123) Nanobody, SEQ ID NO: 15 (protein)
VHH: EVQLVESGGGLVQAGGSLRLSCAASGSIFSGNVMGWYRRQAPGKEREWVAAIASGGSIYYRDSVKGRFTISRDNAKNTVYLQMNSLKPEDTAVYYCNSHPPTLPYWGLGTQVTVSS
- SPR - IL-3Ra ka [1]: 1e+06 M⁻¹ s⁻¹
- SPR - IL-3Ra kd [1]: 0.00081 s⁻¹
- binding to HEK293T-wt cells (HEK293T-wt cells): lack of binding

B5: CEA#5: NbCEA5(K43Q, G47A, T73N, V78L) (protein)
VHH: EVQLVESGGGSVQAGGSLRLSCAASGDTYGSYWMGWFRQAPGQEREAVAAINRGGGYTVYADSVKGRFTISRDNAKNTLYLQMNSLRPDDTADYYCAASGVLGGLHEDWFNYWGQGTLVTVSS
- hCEACAM5 ka (hCEACAM5): 1.1e+06 M⁻¹ s⁻¹
- hCEACAM5 kd (hCEACAM5): 0.0033 s⁻¹

B6: CEA#2: humanised NbCEA5 variant (S11L, A14P, K43Q, E44G, R45L, G47A, T73N, A74S, V78L, P84A, D85E, D89V) (protein)
VHH: B5 VHH with S11L, A14P, E44G, R45L, A75S, P88A, D89E, D93V
- hCEACAM5 ka (hCEACAM5): 1.3e+06 M⁻¹ s⁻¹
- hCEACAM5 kd (hCEACAM5): 0.0025 s⁻¹
